For the assay, the target named is mammalian voltage-gated Kv1.2 channel (mammalian).

Ends that are not written are not given here.

B1: [Q15]-MTX (peptide)
peptide: VSCTGSKDCYAPCRQQTGCPNAKCINKSCKCYGC
modifications: not fully specified; ends and bridges not checked
B1 registered a potency on the channel of 0.047 nM.

The values above are taken from US20090062198A1.
